{
  "source": "paper PMC3102601",
  "proteins": {"B1": {"name": "phosphonoacetate hydrolase (PAc hydrolase) (Pseudomonas fluorescens) (protein)", "chain": "TQLISVNSRSYRLSSAPTIVICVDGCEQEYINQAIQAGQAPFLAELTGFGTVLTGDCVVPSFTNPNNLSIVTGAPPSVHGICGNFFFDQETQEEVLMNDAKYLRAPTILAEMAKAGQLVAVVTAKDKLRNLLGHQLKGICFSAEKADQVNLEEHGVENILARVGMPVPSVYSADLSEFVFAAGLSLLTNERPDFMYLSTTDYVQHKHAPGTPEANAFYAMMDSYFKRYHEQGAIVAITADHGMNAKTDAIGRPNILFLQDLLDAQYGAQRTRVLLPITDPYVVHHGALGSYATVYLRDAVPQRDAIDFLAGIAGVEAVLTRSQACQRFELPEDRIGDLVVLGERLTVLGSAADKHDLSGLTVPLRSHGGVSEQKVPLIFNRKLVGLDSPGRLRNFDIIDLALNHLA"}},
  "experiment_in_all_cases": "purified protein",
  "key": {"purified protein [1]": {"substrate": "Nc1ncnc2c1ncn2[C@@H]1O[C@H](COP(=O)(O)OP(=O)(O)OP(=O)(O)O)[C@@H](O)[C@H]1O", "assay_type": "biochemical, Pseudomonas fluorescens", "details": "Zn2+ active site; phosphoryl transfer to Thr64; 25.0 °C"}, "purified protein [2]": {"substrate": "O=[N+]([O-])c1ccc(OP(=O)(O)O)cc1", "details": "Zn2+; 25.0 °C"}, "purified protein [3]": {"substrate": "O=CCP(=O)(O)O", "details": "Zn2+; 25.0 °C"}},
  "data": [
    {"protein": "B1", "values": [
      {"measurement": "Km", "setting": "purified protein [1]", "value": 1000, "unit": "µM"},
      {"measurement": "kcat", "setting": "purified protein [1]", "value": 0.0002, "unit": "s⁻¹"},
      {"measurement": "kcat/Km", "setting": "purified protein [1]", "value": 0.2, "unit": "M⁻¹ s⁻¹"},
      {"measurement": "Km", "setting": "purified protein [2]", "value": "14000 ± 200", "unit": "µM"},
      {"measurement": "kcat", "setting": "purified protein [2]", "value": 0.22, "unit": "s⁻¹"},
      {"measurement": "kcat/Km", "setting": "purified protein [2]", "value": 20, "unit": "M⁻¹ s⁻¹"},
      {"measurement": "Km", "setting": "purified protein [3]", "value": "330 ± 10", "unit": "µM"},
      {"measurement": "kcat", "setting": "purified protein [3]", "value": "0.027 ± 0.01", "unit": "s⁻¹"},
      {"measurement": "kcat/Km", "setting": "purified protein [3]", "value": 80, "unit": "M⁻¹ s⁻¹"}
    ]}
  ]
}
